Target: T1, His-tagged KLHL2 protein (human, UniProt O95198 1-593)
T1 construct: Kelch Like Family Member 2 (KLHL2), human; source: recombinant
T1 sequence (looked up): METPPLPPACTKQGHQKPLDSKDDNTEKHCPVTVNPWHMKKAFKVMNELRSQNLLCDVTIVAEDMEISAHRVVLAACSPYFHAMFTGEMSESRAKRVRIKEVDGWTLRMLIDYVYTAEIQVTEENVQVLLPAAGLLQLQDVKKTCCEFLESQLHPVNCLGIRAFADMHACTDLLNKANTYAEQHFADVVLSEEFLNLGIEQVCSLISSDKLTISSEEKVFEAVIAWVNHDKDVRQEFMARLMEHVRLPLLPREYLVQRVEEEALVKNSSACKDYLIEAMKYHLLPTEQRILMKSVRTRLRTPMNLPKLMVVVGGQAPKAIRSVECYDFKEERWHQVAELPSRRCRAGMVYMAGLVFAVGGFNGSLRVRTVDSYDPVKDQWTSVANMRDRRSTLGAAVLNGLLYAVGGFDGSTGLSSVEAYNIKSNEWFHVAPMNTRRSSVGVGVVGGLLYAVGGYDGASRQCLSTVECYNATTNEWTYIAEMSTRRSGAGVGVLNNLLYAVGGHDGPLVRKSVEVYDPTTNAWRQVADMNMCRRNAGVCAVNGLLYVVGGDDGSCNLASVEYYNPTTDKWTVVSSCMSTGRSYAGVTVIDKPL
Test: pull-down; recombinant GST-UCK1 protein incubated with His-tagged KLHL2 protein; GST pull-down
Conditions: both partners purified

- binding result: binds
B1: Recombinant GST-UCK1 protein (enzyme, human, UniProt Q9HA47 1-277, looked up)
chain: MASAGGEDCESPAPEADRPHQRPFLIGVSGGTASGKSTVCEKIMELLGQNEVEQRQRKVVILSQDRFYKVLTAEQKAKALKGQYNFDHPDAFDNDLMHRTLKNIVEGKTVEVPTYDFVTHSRLPETTVVYPADVVLFEGILVFYSQEIRDMFHLRLFVDTDSDVRLSRRVLRDVRRGRDLEQILTQYTTFVKPAFEEFCLPTKKYADVIIPRGVDNMVAINLIVQHIQDILNGDICKWHRGGSNGRSYKRTFSEPGDHPGMLTSGKRSHLESSSRPH
notes: uridine-cytidine kinase 1 (UCK1), human; source: recombinant

Reference: paper PMC6956814, “Deubiquitinase USP28 inhibits ubiquitin ligase KLHL2-mediated uridine-cytidine kinase 1 degradation and confers sensitivity to 5'-azacytidine-resistant human leukemia cells” (Theranostics, 2020)
